Data published in article PMC11417369, “DNA sequence and chromatin differentiate sequence-specific transcription factor binding in the human malaria parasite Plasmodium falciparum”.

T1: AP2-G D1 (Plasmodium falciparum, UniProt Q8I5I9 2123-2245)
T1 sequence: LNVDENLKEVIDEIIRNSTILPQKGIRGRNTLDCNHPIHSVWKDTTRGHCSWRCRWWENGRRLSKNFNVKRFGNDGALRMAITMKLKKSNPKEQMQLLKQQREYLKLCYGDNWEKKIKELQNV


target: T1, AP2-G D1; experiment: gcPBM; about 25 ug protein; PBS, 1% milk, 0.2 mg/ml BSA, salmon testes DNA, 0.03% Triton X-100; settings: tags: N-terminal GST (pGEX-4T-1), kept; label: surface-attached array probe

Binder	binding signal
XGTACX_negctrl_site160 (dsDNA) DNA 1: ACATGCCAAAATCTAATACAATAATAATAAAAAAAA DNA 2: TTTTTTTTATTATTATTGTATTAGATTTTGGCATGT	9.83 ln median PBM intensity, better of two orientations
XGTACX_negctrl_site187 (dsDNA) DNA 1: AATATATATATATATATATATATTTCAATATATAAA DNA 2: TTTATATATTGAAATATATATATATATATATATATT	9.75 ln median PBM intensity, better of two orientations
XGTACX_negctrl_site244 (dsDNA) DNA 1: AAAAATATGAAGACACAATATAGAAATAAAAATATA DNA 2: TATATTTTTATTTCTATATTGTGTCTTCATATTTTT	9.84 ln median PBM intensity, better of two orientations
XGTACX_negctrl_site149 (dsDNA) DNA 1: AGAATTTAGAAACAATGTTGTATATGTAATACCTTT DNA 2: AAAGGTATTACATATACAACATTGTTTCTAAATTCT	9.82 ln median PBM intensity, better of two orientations
XGTACX_negctrl_site277 (dsDNA) DNA 1: TTATTTTACTTTTATGCAACTAAAAATATTGCTATA DNA 2: TATAGCAATATTTTTAGTTGCATAAAAGTAAAATAA	9.82 ln median PBM intensity, better of two orientations
XGTACX_negctrl_site507 (dsDNA) DNA 1: ATAAAAAATAAATATATACATACATACATACATATA DNA 2: TATATGTATGTATGTATGTATATATTTATTTTTTAT	9.8 ln median PBM intensity, better of two orientations
XGTACX_negctrl_site595 (dsDNA) DNA 1: TTATATTATGTTCAATCAAAAATTATTTTTAAAAAA DNA 2: TTTTTTAAAAATAATTTTTGATTGAACATAATATAA	9.82 ln median PBM intensity, better of two orientations
XGTACX_negctrl_site188 (dsDNA) DNA 1: AAAGTATAACGGATACCATTTATGTGATTATTTTGT DNA 2: ACAAAATAATCACATAAATGGTATCCGTTATACTTT	9.78 ln median PBM intensity, better of two orientations
XGTACX_negctrl_site283 (dsDNA) DNA 1: TACTAAAATATATATATGCAACATGAGATATTCAAC DNA 2: GTTGAATATCTCATGTTGCATATATATATTTTAGTA	9.82 ln median PBM intensity, better of two orientations
XGTACX_negctrl_site546 (dsDNA) DNA 1: AGCCCTTTTTTTTTTTAGAATATTGCATAATTATAT DNA 2: ATATAATTATGCAATATTCTAAAAAAAAAAAGGGCT	9.79 ln median PBM intensity, better of two orientations
XGTACX_negctrl_site380 (dsDNA) DNA 1: TTTTTTAAAAGATATATAATATGTATGAATATTCAA DNA 2: TTGAATATTCATACATATTATATATCTTTTAAAAAA	9.71 ln median PBM intensity, better of two orientations
XGTACX_negctrl_site448 (dsDNA) DNA 1: ATATAAGATTACAAAAATTATGTGTAAATATTTAAT DNA 2: ATTAAATATTTACACATAATTTTTGTAATCTTATAT	9.81 ln median PBM intensity, better of two orientations
XGTACX_negctrl_site200 (dsDNA) DNA 1: GTCCTTATGGATGATAAATTATTTTAAATATTCTAT DNA 2: ATAGAATATTTAAAATAATTTATCATCCATAAGGAC	9.79 ln median PBM intensity, better of two orientations
XGTACX_negctrl_site524 (dsDNA) DNA 1: AAAACTATTAATGCAAAAAATAAAATATAATAATAA DNA 2: TTATTATTATATTTTATTTTTTGCATTAATAGTTTT	9.83 ln median PBM intensity, better of two orientations
XGTACX_negctrl_site501 (dsDNA) DNA 1: AAATTATAAAAAAAAAAAAAAAAAAAAAAAAAAAAA DNA 2: TTTTTTTTTTTTTTTTTTTTTTTTTTTTTATAATTT	9.83 ln median PBM intensity, better of two orientations
XGTACX_negctrl_site268 (dsDNA) DNA 1: AAAACAAATTTTAATGAGAATATGAAAAAAAAATAT DNA 2: ATATTTTTTTTTCATATTCTCATTAAAATTTGTTTT	9.74 ln median PBM intensity, better of two orientations
XGTACX_negctrl_site279 (dsDNA) DNA 1: TTTTTACTATAAGGGGAAAAAAAAAAAAATAATATA DNA 2: TATATTATTTTTTTTTTTTTCCCCTTATAGTAAAAA	9.81 ln median PBM intensity, better of two orientations
XGTACX_negctrl_site555 (dsDNA) DNA 1: TTCTTTATTTATCATTATAAGAAGAGTTGATTTGTT DNA 2: AACAAATCAACTCTTCTTATAATGATAAATAAAGAA	9.71 ln median PBM intensity, better of two orientations
XGTACX_negctrl_site39 (dsDNA) DNA 1: TTTTTAATTATCTTTTCCCATGGTTTCTCCGTTTTT DNA 2: AAAAACGGAGAAACCATGGGAAAAGATAATTAAAAA	9.84 ln median PBM intensity, better of two orientations
XGTACX_negctrl_site180 (dsDNA) DNA 1: TACATATAAATATATAAATATAAATAAATAAATAAA DNA 2: TTTATTTATTTATTTATATTTATATATTTATATGTA	9.74 ln median PBM intensity, better of two orientations
XGTACX_negctrl_site190 (dsDNA) DNA 1: AATAGAAACATTTTACATGTATATATAATTTTTTTT DNA 2: AAAAAAAATTATATATACATGTAAAATGTTTCTATT	9.8 ln median PBM intensity, better of two orientations
XGTACX_negctrl_site66 (dsDNA) DNA 1: TTTTGAGAAAAAATAAAATAATAAATAAAAATACAT DNA 2: ATGTATTTTTATTTATTATTTTATTTTTTCTCAAAA	9.8 ln median PBM intensity, better of two orientations

Binder	binding signal
XGTACX_negctrl_site224 (dsDNA) DNA 1: TTGTTTCTTAAATTATTTATTTTATATTAAAAAAAA DNA 2: TTTTTTTTAATATAAAATAAATAATTTAAGAAACAA	9.8 ln median PBM intensity, better of two orientations
XGTACX_negctrl_site331 (dsDNA) DNA 1: AAGGAATAAAATTTAGAAGACAATTTTATTTCAGTA DNA 2: TACTGAAATAAAATTGTCTTCTAAATTTTATTCCTT	9.81 ln median PBM intensity, better of two orientations
XGTACX_negctrl_site88 (dsDNA) DNA 1: AAGGGGAGAAAAATAAACGAAATATATACATACATA DNA 2: TATGTATGTATATATTTCGTTTATTTTTCTCCCCTT	9.83 ln median PBM intensity, better of two orientations
XGTACX_negctrl_site373 (dsDNA) DNA 1: ATTTATAATGATTTTTTTAGTAATCTTGTTATTTTT DNA 2: AAAAATAACAAGATTACTAAAAAAATCATTATAAAT	9.69 ln median PBM intensity, better of two orientations
XGTACX_negctrl_site183 (dsDNA) DNA 1: TATTTTTCTTTTTAAAAATATATCACATGAACATTA DNA 2: TAATGTTCATGTGATATATTTTTAAAAAGAAAAATA	9.84 ln median PBM intensity, better of two orientations
XGTACX_negctrl_site572 (dsDNA) DNA 1: TTAGGAAGCTCACAAAATAAAGTGAAAAGAAGAAAA DNA 2: TTTTCTTCTTTTCACTTTATTTTGTGAGCTTCCTAA	9.76 ln median PBM intensity, better of two orientations
XGTACX_negctrl_site542 (dsDNA) DNA 1: TACATTTCATTGTAATCATAAAAAATAAAGAAAAAA DNA 2: TTTTTTCTTTATTTTTTATGATTACAATGAAATGTA	9.7 ln median PBM intensity, better of two orientations
XGTACX_negctrl_site102 (dsDNA) DNA 1: TTCTTTTTATTTATATTTTCCCCTCTCTATAGCTAT DNA 2: ATAGCTATAGAGAGGGGAAAATATAAATAAAAAGAA	9.73 ln median PBM intensity, better of two orientations
XGTACX_negctrl_site80 (dsDNA) DNA 1: AAACATTTATCAATGAATCTTTTAATAAGTGTAAAG DNA 2: CTTTACACTTATTAAAAGATTCATTGATAAATGTTT	9.73 ln median PBM intensity, better of two orientations
XGTACX_negctrl_site421 (dsDNA) DNA 1: TATAAGAGAAGAAGAAAAAAAAGGTTTCTATAGAAA DNA 2: TTTCTATAGAAACCTTTTTTTTCTTCTTCTCTTATA	9.78 ln median PBM intensity, better of two orientations
XGTACX_negctrl_site374 (dsDNA) DNA 1: AATAAACATTATTTTCGTATTCCAATTCTTTTTTTT DNA 2: AAAAAAAAGAATTGGAATACGAAAATAATGTTTATT	9.74 ln median PBM intensity, better of two orientations
XGTACX_negctrl_site69 (dsDNA) DNA 1: AGAGTAGGAAATGGAAAAATAAAATAAATAAATAAA DNA 2: TTTATTTATTTATTTTATTTTTCCATTTCCTACTCT	9.72 ln median PBM intensity, better of two orientations
XGTACX_negctrl_site347 (dsDNA) DNA 1: AAAATGGAACTAGGAATAATATAAGAAGATAAAAGG DNA 2: CCTTTTATCTTCTTATATTATTCCTAGTTCCATTTT	9.72 ln median PBM intensity, better of two orientations
XGTACX_negctrl_site461 (dsDNA) DNA 1: ATGAATTTTTCTCTACAAAAGGATATAATAAAAATA DNA 2: TATTTTTATTATATCCTTTTGTAGAGAAAAATTCAT	9.76 ln median PBM intensity, better of two orientations
XGTACX_negctrl_site26 (dsDNA) DNA 1: TATAATTTTTTTGAATTATATATATATATATATAAT DNA 2: ATTATATATATATATATATAATTCAAAAAAATTATA	9.84 ln median PBM intensity, better of two orientations
XGTACX_negctrl_site14 (dsDNA) DNA 1: AAATAAAAAGAAAAGAAAAAGAAAATAAAAAGAGAA DNA 2: TTCTCTTTTTATTTTCTTTTTCTTTTCTTTTTATTT	9.83 ln median PBM intensity, better of two orientations
XGTACX_negctrl_site181 (dsDNA) DNA 1: ATTCGTAGTTTTATGAATTAATATAATAAAAATTAA DNA 2: TTAATTTTTATTATATTAATTCATAAAACTACGAAT	9.77 ln median PBM intensity, better of two orientations
XGTACX_negctrl_site426 (dsDNA) DNA 1: TATTAAAATTAAAAAAAAAAAAAAAAGCAATAAAAA DNA 2: TTTTTATTGCTTTTTTTTTTTTTTTTAATTTTAATA	9.73 ln median PBM intensity, better of two orientations
XGTACX_negctrl_site395 (dsDNA) DNA 1: TTATTAGAGATGTTAAGATATAGGGATAATTTCGAT DNA 2: ATCGAAATTATCCCTATATCTTAACATCTCTAATAA	9.76 ln median PBM intensity, better of two orientations
XGTACX_negctrl_site480 (dsDNA) DNA 1: TTGATAAAAAAAAAAAAATAAAAAAAAAATAAAAAA DNA 2: TTTTTTATTTTTTTTTTATTTTTTTTTTTTTATCAA	9.72 ln median PBM intensity, better of two orientations
XGTACX_negctrl_site614 (dsDNA) DNA 1: TAATTCGCAAAAGAAAGAAATTAAGAAAAAGAAAAA DNA 2: TTTTTCTTTTTCTTAATTTCTTTCTTTTGCGAATTA	9.81 ln median PBM intensity, better of two orientations
